The record followed here is patent publication US20090068736A1 (TRUSTEES OF DARTMOUTH COLLEGE, published 2009).

Bounds are passed on as bounds.

This experiment has as its target Mammalian (Human) 20S Proteasome (Mammalian (Human)). Description: cell-based or functional assay.

Turning to RRRPRPPYLPR [PR11], the “I50 (µM), inhibition of chymotrypsin-like (ChT-L) peptidase activity of 20S proteasome, N-succinyl-LLVY-AMC substrate” value (shortened to “I50 (µM), inhibition”) is 0.805 µM. In the case of RRRPRPPYGPR [G9] it was 0.137 µM; in that of RARPRPPYLPR [A2], 2.77 µM. With AAAPRPPYLPR [AAA-PR11] the figure was > 100 µM; with RRKPRPPYLPR [K3], 0.819 µM.

On to RRRARPPYLPR [A4], for which the “I50 (µM), inhibition” value came to 4.99 µM. As for RAAPRPPYLPR [RAA], the “I50 (µM), inhibition” value worked out at 20.1 µM.

For the molecule RRRPAPPYLPR [A5], the “I50 (µM), inhibition” value is 2.65 µM. Consider KKKPRPPYLPR [KKK], for which the “I50 (µM), inhibition” value was found to be 2.71 µM. In the case of RRRPRPPYLPA [A11] it was 0.685 µM; in that of KRRPRPPELPR [K1E8], 6.34 µM; in that of AARPRPPYLPR [AAR], 14.5 µM. With RRRPRPPFLPRW [F8W12] the figure was 0.034 µM; with RRRPRAPYLPR [A6], 1.22 µM.

As to ARRPRPPELPR [A1E8], the “I50 (µM), inhibition” value was found to be 49.4 µM. With RRRPRPPYLAR [A10] the figure was 0.782 µM. In the case of RRAPRPPYLPR [A3] it was 3.15 µM; in that of RRRPRPPELPRW [E8W12], 2.62 µM.

Regarding ARRPRPPYLPR [A1], the “I50 (µM), inhibition” value came out at 2.81 µM. In the case of RRRPRPPYLPRPRPPPFFPPRLPPRIPPGFPPRFPPRFP [PR39] it was 0.004 µM; in that of RKRPRPPYLPR [K2], 0.543 µM; in that of RRRPRPPALPRW [A8W12], 0.715 µM. On to RRRPRPAYLPR [A7], for which the “I50 (µM), inhibition” value amounted to 0.851 µM. In the case of RRRPRPPELPR [E8] it was 2.37 µM; in that of ARAPRPPYLPR [ARA], 11.3 µM.

Turning to KRRRPPYLPR [K1], the “I50 (µM), inhibition” value was determined as 0.595 µM. In the case of RRRPRPPYLPRW [W12], the “I50 (µM), inhibition” value was found to be 0.006 µM.
